Values of other authors in article PMC8441013.

Target: neuromedin B (Homo sapiens) (UniProt P08949)
Sequence of UniProt P08949 (P08949 whole entry, looked up): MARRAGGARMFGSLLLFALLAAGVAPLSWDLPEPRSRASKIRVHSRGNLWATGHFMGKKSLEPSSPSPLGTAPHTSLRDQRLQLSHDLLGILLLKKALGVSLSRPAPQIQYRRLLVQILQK

NMBR (from UniProt P28336)
Kd: 5 nM
